Assay [1] has as its target T1, rat acid-sensing ion channel 1a (rat) (UniProt P55926).
T1 sequence: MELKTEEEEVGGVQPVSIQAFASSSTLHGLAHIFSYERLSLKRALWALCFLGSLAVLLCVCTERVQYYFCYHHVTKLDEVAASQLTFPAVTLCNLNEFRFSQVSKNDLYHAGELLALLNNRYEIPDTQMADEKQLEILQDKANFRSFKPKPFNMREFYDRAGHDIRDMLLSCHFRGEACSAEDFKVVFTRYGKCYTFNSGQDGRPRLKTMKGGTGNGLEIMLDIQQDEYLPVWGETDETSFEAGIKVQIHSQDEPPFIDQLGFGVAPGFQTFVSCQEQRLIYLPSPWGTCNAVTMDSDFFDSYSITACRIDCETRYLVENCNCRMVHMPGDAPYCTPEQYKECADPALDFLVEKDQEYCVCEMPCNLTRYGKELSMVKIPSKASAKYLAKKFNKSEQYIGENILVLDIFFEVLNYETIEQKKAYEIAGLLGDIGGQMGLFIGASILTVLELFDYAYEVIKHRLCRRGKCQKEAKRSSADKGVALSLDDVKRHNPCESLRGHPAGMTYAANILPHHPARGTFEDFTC

Assay [2] concerns the target T2, human acid-sensing ion channel 1a (human) (UniProt P78348).
T2 sequence: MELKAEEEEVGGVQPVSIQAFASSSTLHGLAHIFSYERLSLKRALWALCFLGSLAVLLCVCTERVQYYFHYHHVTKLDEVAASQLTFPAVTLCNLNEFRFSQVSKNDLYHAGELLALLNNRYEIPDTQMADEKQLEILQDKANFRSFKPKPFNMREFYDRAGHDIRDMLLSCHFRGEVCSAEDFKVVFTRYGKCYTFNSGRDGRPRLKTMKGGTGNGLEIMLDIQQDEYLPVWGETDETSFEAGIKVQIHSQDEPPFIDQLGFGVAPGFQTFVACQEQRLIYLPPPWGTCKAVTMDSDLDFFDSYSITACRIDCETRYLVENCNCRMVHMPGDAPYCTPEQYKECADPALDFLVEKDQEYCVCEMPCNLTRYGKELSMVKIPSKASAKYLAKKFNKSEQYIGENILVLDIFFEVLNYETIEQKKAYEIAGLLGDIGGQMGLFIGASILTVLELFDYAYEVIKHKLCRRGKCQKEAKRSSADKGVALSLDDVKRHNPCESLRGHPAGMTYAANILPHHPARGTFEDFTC

For assay [3], the target named is T3, rat acid-sensing ion channel 1b (rat).
T3 sequence (P55926 whole entry, looked up): T1 sequence

The target is the same in assay [4]. The source holds these as a separate data set.
In assay [5] the target is T4, rASIC1a S83T/Q84E/R175C/E177G (rat) (UniProt P55926).
T4 sequence: T1 sequence with S83T, Q84E, R175C, E177G

For assay [6], the target named is T1, rat acid-sensing ion channel 1a (rat). This is another data set of the same source.
The target of assay [7] is T3, rat acid-sensing ion channel 1b (rat). The source holds these as a separate data set.
In assay [8] the target is rASIC1b T128S/E129Q/C208R/G210E (rat).
The target of assay [9] is T5, rASIC1a E362R (rat) (UniProt P55926).
T5 sequence: T1 sequence with E362R

The target of assay [10] is T2, human acid-sensing ion channel 1a (human). The source holds these as a separate data set.

The values that follow come from PMC11335189, “Revealing molecular determinants governing mambalgin-3 pharmacology at acid-sensing ion channel 1 variants” (Cellular and Molecular Life Sciences: CMLS, 2024).

Residue numbers refer to the chain shown, from its start. Some results are limits rather than exact numbers.

Consider Ma-3 H6A (peptide), for which the fold increase of the IC50 of current inhibition against wild-type Ma-3 (conditioning pH 7.45, stimulus pH 6) in [1] is greater than 10 fold.

For Ma-3 K8A (peptide), the fold loss of potency of current inhibition against wild-type Ma-3 (conditioning pH 7.45, stimulus pH 6) was 4 fold in assay [1], 4 fold in assay [2] and greater than 30 fold in [3]. For the same molecule, the I/I (control) of pH 6-evoked currents with 300 nM peptide (I/I (control)) is 0.91 in assay [4] and 0.65 in [5].

B1: mambalgin-3 (peptide)
chain: SLKCYQHGKVVTCHRDMKFCYHNIGMPFRNLKLILQGCSSSCSETENNKCCSTDRCNK
On to B1, for which the figures for the IC50 of inhibition of pH 6-evoked currents (two-electrode voltage clamp, Xenopus oocytes, conditioning pH 7.45) in assay [6], in assay [7] and in assay [10] were 3.9 nM, 38.3 nM and 25 nM, respectively. The maximal inhibition of pH 6-evoked currents at saturating Ma-3 in assay [7] turned out to be 60%. For the same molecule, the IC50 of inhibition of pH 6-evoked currents (conditioning pH 7.45) in [8] was 18.5 nM. This molecule also returned a concentration-response of inhibition of pH 6-evoked currents (conditioning pH 7.45); fold change against wild-type rASIC1a in [9] of 5 fold. The I/I (control) of pH 6-evoked currents with 300 nM peptide (I/I (control)) is 0.4 in assay [4] and 0.48 in assay [5].
